Assays:
cryo-EM structure = biological target: the molecule itself; assay: cryo-EM structure
[1] = biological target: T1, IL-10Rα ECD, from Expi-293 cells (for structural studies) (human, UniProt Q13651 20-235); assay: SEC
T1 sequence (looked up): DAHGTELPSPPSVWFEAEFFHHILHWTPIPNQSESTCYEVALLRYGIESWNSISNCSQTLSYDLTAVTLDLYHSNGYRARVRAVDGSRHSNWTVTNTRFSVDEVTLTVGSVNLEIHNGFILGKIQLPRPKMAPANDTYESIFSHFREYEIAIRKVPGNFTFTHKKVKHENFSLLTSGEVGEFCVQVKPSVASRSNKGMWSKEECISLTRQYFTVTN

binding result [1]: binds
B1: Affinity matured IL-10 (super-10, clone 5.1), soluble (ligand, UniProt P22301 19-178, looked up)
chain: SPGQGTQSENSCTHFPGYLPNMLRDLRDAFSRVKTFFQMKDQLDNLLLKESLLEDFKGYLGCQALSEMIQFYLEEVMPQAENQDPDIKAHVQSLGENLKDLRLWLRRCHRFLPCENKSKAVEQVKNAFNKLQEKGIYKAMSEFDIFINYIEAYMTMKIRN
binding result (cryo-EM structure): binds

From publication PMC9132103 (Science (New York, N.Y.), 2021)
